For test [1], the target named is recombinant human soluble γ2 δ3TCR-FC (wild type) (human) (UniProt B7Z8K6). The test is described as follows: Luminex beads; TCR-hFc captured by goat anti-human Fc; antibody titrated.
In test [2] the target is γ2δ3 TCR-hFc mutant S1 (D10N in the Vδ3 chain) (human) (UniProt B7Z8K6). The description is as above.
Test [3] deals with γ2δ3 TCR-hFc mutant S10 (K3A, K79L, H88T in the Vδ3 chain) (human) (UniProt B7Z8K6). Described as above.
The target of test [4] is γ2δ3 TCR-hFc mutant S11 (K79L, L82K, H88F in the Vδ3 chain) (human) (UniProt B7Z8K6). The test is described as above.
The target in test [5] is γ2δ3 TCR-hFc mutant S2 (D26N, K85L in the Vδ3 chain) (human) (UniProt B7Z8K6). Described as above.
The target of test [6] is γ2δ3 TCR-hFc mutant S3 (K79L, H88F in the Vδ3 chain) (human) (UniProt B7Z8K6). The description is as above.
The target of test [7] is γ2δ3 TCR-hFc mutant S4 (E18Q in the Vδ3 chain) (human) (UniProt B7Z8K6). Described as above.
In test [8] the target is γ2δ3 TCR-hFc mutant S5 (D70N, E67Q in the Vδ3 chain) (human) (UniProt B7Z8K6). The test is described as above.
Test [9] has as its target γ2δ3 TCR-hFc mutant S7 (D57N, R65Q in the Vδ3 chain) (human) (UniProt B7Z8K6). The description is as above.
In test [10] the target is γ2δ3 TCR-hFc mutant S8 (K79L, E18Q, H88F in the Vδ3 chain) (human) (UniProt B7Z8K6). The description is as above.
For test [11], the target named is γ2δ3 TCR-hFc mutant S6 (R75Q, R95Q in the Vδ3 chain) (human) (UniProt B7Z8K6). The test is described as follows: Luminex beads; TCR-hFc captured by goat anti-human Fc; antibody titrated; extrapolated value, no saturation achieved.
In test [12] the target is γ2δ3 TCR-hFc mutant S9 (E67Q, D70N, R75Q, R95Q, E97Q in the Vδ3 chain) (human) (UniProt B7Z8K6). The description is as above.
For test [13], the target named is recombinant human soluble γ2 δ3TCR-FC (wild type) (human) (UniProt B7Z8K6). The test is described as follows: Octet, γ2δ3TCR-hFc captured on anti-human Fc biosensor; row antibody δ3-08 taken as first (saturating), column antibody as second; 5 µg/mL each.
Test [14] shares this target. The test is described as follows: Octet, γ2δ3TCR-hFc captured on anti-human Fc biosensor; row antibody δ3-23 taken as first (saturating), column antibody as second; 5 µg/mL each. (In BLI a coated tip is dipped into the sample, and binding shifts an interference pattern.)
The target is the same in test [15]. The test is described as follows: Octet, γ2δ3TCR-hFc captured on anti-human Fc biosensor; row antibody δ3-42 taken as first (saturating), column antibody as second; 5 µg/mL each.
Test [16] has the same target. The test is described as follows: Octet, γ2δ3TCR-hFc captured on anti-human Fc biosensor; row antibody δ3-58 taken as first (saturating), column antibody as second; 5 µg/mL each.
The target is the same in test [17]. The test is described as follows: Octet, γ2δ3TCR-hFc captured on anti-human Fc biosensor; row antibody δ3-31 taken as first (saturating), column antibody as second; 5 µg/mL each; self pair.
Test [18] addresses Vδ3 γδ TCR on the surface of human Vδ3 γδ T cells (PBMC-derived, expanded cultures) (human) (UniProt A0JD37). The test is described as follows: cell-based or functional assay.
Test [19] has the same target. The test is described as follows: flow cytometry on expanded, αβ T cell depleted γδ T cells of Donor 4.
In test [20] the target is γ2δ3 TCR-hFc mutant S6 (R75Q, R95Q in the Vδ3 chain) (human) (UniProt B7Z8K6). The test is described as follows: Luminex beads; TCR-hFc captured by goat anti-human Fc; antibody titrated.
The target in test [21] is γ2δ3 TCR-hFc mutant S9 (E67Q, D70N, R75Q, R95Q, E97Q in the Vδ3 chain) (human) (UniProt B7Z8K6). The description is as above.
Test [22] has as its target γ2δ3 TCR-hFc mutant S10 (K3A, K79L, H88T in the Vδ3 chain) (human) (UniProt B7Z8K6). The test is described as follows: Luminex beads; TCR-hFc captured by goat anti-human Fc; antibody titrated; extrapolated value, no saturation achieved.
Test [23] has as its target γ2δ3 TCR-hFc mutant S11 (K79L, L82K, H88F in the Vδ3 chain) (human) (UniProt B7Z8K6). The test is described as above.
Test [24] concerns the target γ2δ3 TCR-hFc mutant S3 (K79L, H88F in the Vδ3 chain) (human) (UniProt B7Z8K6). The test is described as above.
In test [25] the target is γ2δ3 TCR-hFc mutant S8 (K79L, E18Q, H88F in the Vδ3 chain) (human) (UniProt B7Z8K6). Described as above.
The target of test [26] is recombinant human soluble γ2 δ3TCR-FC (wild type) (human) (UniProt B7Z8K6). The test is described as follows: Octet, γ2δ3TCR-hFc captured on anti-human Fc biosensor; row antibody δ3-31 taken as first (saturating), column antibody as second; 5 µg/mL each.
For test [27] the target is unchanged. The test is described as follows: Octet, γ2δ3TCR-hFc captured on anti-human Fc biosensor; row antibody δ3-23 taken as first (saturating), column antibody as second; 5 µg/mL each; self pair.
In test [28] the target is Vδ3 γδ TCR on the surface of human Vδ3 γδ T cells (PBMC-derived, expanded cultures) (human) (UniProt A0JD37). The test is described as follows: flow cytometry, lower right panel (δ3-23 Expansion): untransduced Donor 4 cells after αβ T cell depletion, δ3-23 MAb staining (x axis) against anti-TCRαβ (y axis); the gated population lies between about 10^4 and 10^5 on the δ3-23 axis; no % sign is printed. (Flow cytometry measures light scatter and fluorescence of single cells or particles in a stream.)

The target is the same in test [29]. The test is described as follows: flow cytometry, upper right panel (δ3-08 Expansion): untransduced Donor 4 cells after αβ T cell depletion, δ3-23 MAb staining (x axis) against anti-TCRαβ (y axis); the gated population lies between about 10^4 and 10^5 on the δ3-23 axis; no % sign is printed.

Sequence of UniProt A0JD37 (A0JD37 19-113, stated change not applied): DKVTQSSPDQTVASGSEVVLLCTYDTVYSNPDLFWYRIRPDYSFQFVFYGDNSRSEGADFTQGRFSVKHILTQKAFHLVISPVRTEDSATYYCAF

B1: δ3-31 (antibody, V domains shown)
VH: DVQLQESGPDLVKPSQSLSLTCTVTGYSITSGYGWHWIRQFPGNKLEWMGYISFSGSNKYNPSLKSRISITRDTSKNQFFLQLNSVTTEDTATYYCANLDYWGQGTTLTVSS
VL: DIQMTQRTSSLSASLGDRVTISCSASQDITNYLHWFQQKPDGTVKLLIYYTSTLHSGVPSRFSGSGSGTDYSLTISNLEPEDIATYYCQQYSKLPYTFGGGTKLEITR
As for B1, the EC50 in test [1] was found to be 0.05 nM; in [2] it was 0.06 nM; in test [3], 0.08 nM; in test [4] it was 0.06 nM; in test [5], 0.05 nM; in test [6], 0.05 nM. Further, the EC50 in test [7] was 0.05 nM; in [8], 4.99 nM; in [9] it was 0.05 nM; in test [10] it was 0.06 nM; in test [11] it was 44.4 nM; in test [12], 37.7 nM. Further, the paired-competition value (Octet signal of the second antibody per paragraph 256) in test [13] amounted to 0.44; in test [14] it was 0.4; in [15] it was 0.37; in test [16] it was 0.38; in test [17] it was 0.07.

B2: δ3-23 (antibody, V domains shown)
VH: EVQLQQSGAELVKPGASVKLSCTASGFNIRDTYMHWVKQRPEQGLEWIGRIDPANGNTKYDPKFRGKATITADTSSNTAYLQLSSLTSEGTAVYYCSEGIYFDYWGQGTTLTVSS
VL: DILLTQSPAILSVSPGERVSFSCRASQNIGTIIHWYQQRANGSPRLLIKYASESISGIPSRFSGSGSGTDFTLSINSVESEDIADYYCQQSNSWPYTFGGGTKLEIKR
B2 came in with a share of non-Vδ1/non-Vδ2 γδ T cells in the culture on Day 21, Donor 1 in [18] of under 41%. Further, the % of non-Vδ1/non-Vδ2 cells stained positive in [19] was over 95%. In addition, the EC50 in [1] amounted to 0.04 nM; in test [2], 0.04 nM; in test [5], 0.04 nM; in test [7], 0.06 nM; in test [8], 0.04 nM; in test [20], 0.04 nM. Further, the EC50 is 0.04 nM in [9]; 0.05 nM in test [21]; 117 nM in test [22]; 112 nM in test [23]; 137 nM in test [24]; 95.8 nM in test [25]. In addition, the paired-competition value (Octet signal of the second antibody per paragraph 256) was 0.29 in test [13]; 0.48 in test [26]; 0.12 in test [15]; 0.07 in test [16]; 0.06 in test [27]. The percent of cells in the Vd3+ gate was found to be 95% in [28] and 95.5% in test [29].

As usually defined, the EC50 is the concentration giving half of the maximal effect.
